Test [1] deals with CEA (carcinoembryonic antigen) (UniProt P06731). The test is described as follows: competitive ELISA on CEA, competitor anti-CEA monoclonal antibody; bsctDb as culture supernatant. Background: In an ELISA, binding on a coated surface is turned into a signal by an enzyme label.
Test [2] deals with lysozyme (antigen) (UniProt P00698). The test is described as follows: competitive ELISA on lysozyme, competitor anti-lysozyme Fab antibody fragment; bsctDb as culture supernatant.

As to “D1.3-A5B7 bispecific single chain tetravalent diabody (bispecific antibody)”, in test [1], the % Inhibition in CEA Competition ELISA is 100%. The same substance showed a % Inhibition in D1.3 Competition ELISA in test [2] of 100%.

Source of the values: patent US20140065670A1.
